Results from US20210395381A1 (OSSIANIX, published 2021).
Substitutions are numbered along the chain they refer to.

B1: Clone 8.111 (VNAR)
VNAR: ARVDQTPQTITKETGESLTINCVLRDSNCALPSTYWYRKKSGSTNEESISKGGRYVETVNSGSKSFSLRINDLTVEDSGTYRCKVIAQLSSILRGCNYDVNDVYGDGTAVTVNA
notes: VNAR on phage; Clone 8 framework
B2: Clone 8.112 (VNAR)
VNAR: B1 VNAR with I92V, L93Y, R94K, D99R, V100K, N101H
notes: as for B1
B3: Clone 8.113 (VNAR)
VNAR: B1 VNAR with I92Y, L93R, R94P, D99R, V100K, N101H
notes: VNAR on phage; Clone 8 framework; same CDR3 as 8.120
B4: Clone 8.114 (VNAR)
VNAR: B1 VNAR with L89P, D99G, V100K, N101L
notes: as for B1
B5: Clone 8.115 (VNAR)
VNAR: B1 VNAR with Q88L, L89H, S90R, D99R, V100K, N101H
notes: as for B1
B6: Clone 8.116 (VNAR)
VNAR: B1 VNAR with S90N, S91H, I92Y, D99R, V100K, N101H
notes: as for B1
B7: Clone 8.117 (VNAR)
VNAR: B1 VNAR with R94A, G95L, N97M, D99R, V100K, N101H
notes: as for B1
B8: Clone 8.118 (VNAR)
VNAR: B1 VNAR with I92R, L93A, R94M, D99R, V100K, N101H
notes: as for B1
B9: Clone 8.119 (VNAR)
VNAR: B1 VNAR with I92V, L93F, R94I, D99R, V100K, N101H
notes: as for B1
B10: Clone 8.120 (VNAR)
VNAR: B1 VNAR with I92Y, L93R, R94P, D99R, V100K, N101H
notes: VNAR on phage; Clone 8 framework; same CDR3 as 8.113
B11: Clone 8.121 (VNAR)
VNAR: B1 VNAR with Q88T, S90G, D99R, V100K, N101H
notes: as for B1
B12: Clone 8.122 (VNAR)
VNAR: B1 VNAR with D99R, V100A, N101S
notes: as for B1
B13: Clone 8.123 (VNAR)
VNAR: B1 VNAR with L93M, D99I, V100M, N101R
notes: as for B1
B14: Clone 8.124 (VNAR)
VNAR: B1 VNAR with I92V, L93K, R94D, D99R, V100K, N101H
notes: as for B1
B15: Clone 8.125 (VNAR)
VNAR: B1 VNAR with I92Y, L93E, R94T, D99R, V100K, N101H
notes: as for B1
B16: Clone 8.126 (VNAR)
VNAR: B1 VNAR with L89Q, S90D, S91Q, I92D, D99R, V100K, N101H
notes: as for B1
B17: Clone 8.127 (VNAR)
VNAR: B1 VNAR with Q88K, L89P, S90N, D99R, V100K, N101H
notes: as for B1
B18: Clone 8.128 (VNAR)
VNAR: B1 VNAR with S90I, S91K, I92N, D99R, V100K, N101H
notes: as for B1
B19: Clone 8.129 (VNAR)
VNAR: B1 VNAR with Y98Q, D99P, V100K, N101H
notes: as for B1
B20: Clone 8.130 (VNAR)
VNAR: B1 VNAR with D99A, V100H, N101L
notes: as for B1
B21: Clone 8.131 (VNAR)
VNAR: B1 VNAR with D99L, V100D, N101L
notes: as for B1
B22: Clone 8.132 (VNAR)
VNAR: B1 VNAR with D99M, V100H, N101P
notes: as for B1
B23: Clone 8.133 (VNAR)
VNAR: B1 VNAR with I92R, L93E, R94L, D99R, V100K, N101H
notes: VNAR on phage; Clone 8 framework; same CDR3 as 8.104
B24: Clone 8.134 (VNAR)
VNAR: B1 VNAR with I86D, A87L, Q88T, D99R, V100K, N101H
notes: as for B1
B25: Clone 8.135 (VNAR)
VNAR: B1 VNAR with S90F, S91P, I92P, D99R, V100K, N101H
notes: as for B1
B26: Clone 8.136 (VNAR)
VNAR: B1 VNAR with I92A, L93G, R94I, D99R, V100K, N101H
notes: as for B1
B27: Clone 8.138 (VNAR)
VNAR: B1 VNAR with I92L, L93S, R94F, D99R, V100K, N101H
notes: as for B1

Key:
[1] = target: T1, recombinant mouse TfR-1 (mouse, UniProt Q62351 89-763); assay: phage ELISA
T1 construct: Recombinant protein coated at 1 ug/ml in the phage ELISA; also called mTfR1; mouse transferrin receptor-1

[2] = target: T2, recombinant human TfR-1 (human, UniProt P02786 89-760); assay: phage ELISA
T2 construct: Recombinant protein coated at 1 ug/ml in the phage ELISA; also called hTfR1; human transferrin receptor-1
T2 sequence (P02786 89-760 limits assumed): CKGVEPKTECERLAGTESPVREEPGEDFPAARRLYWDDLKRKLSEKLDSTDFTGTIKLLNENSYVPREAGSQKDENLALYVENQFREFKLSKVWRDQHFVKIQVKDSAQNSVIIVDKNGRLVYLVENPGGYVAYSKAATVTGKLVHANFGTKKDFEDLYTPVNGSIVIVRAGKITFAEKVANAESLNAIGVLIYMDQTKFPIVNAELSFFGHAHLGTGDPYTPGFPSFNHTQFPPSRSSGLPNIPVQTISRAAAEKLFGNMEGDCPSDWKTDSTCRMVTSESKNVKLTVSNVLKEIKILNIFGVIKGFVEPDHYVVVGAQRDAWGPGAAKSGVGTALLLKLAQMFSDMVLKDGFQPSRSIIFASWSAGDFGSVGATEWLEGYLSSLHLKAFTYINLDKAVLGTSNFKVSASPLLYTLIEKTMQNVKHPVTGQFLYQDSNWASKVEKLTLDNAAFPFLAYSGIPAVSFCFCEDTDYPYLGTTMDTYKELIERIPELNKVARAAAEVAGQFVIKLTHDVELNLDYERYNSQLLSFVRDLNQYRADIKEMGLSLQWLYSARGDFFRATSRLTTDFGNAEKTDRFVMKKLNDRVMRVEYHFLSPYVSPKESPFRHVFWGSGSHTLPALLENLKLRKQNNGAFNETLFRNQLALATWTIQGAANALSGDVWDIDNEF

T1 sequence (Q62351 89-763 limits assumed): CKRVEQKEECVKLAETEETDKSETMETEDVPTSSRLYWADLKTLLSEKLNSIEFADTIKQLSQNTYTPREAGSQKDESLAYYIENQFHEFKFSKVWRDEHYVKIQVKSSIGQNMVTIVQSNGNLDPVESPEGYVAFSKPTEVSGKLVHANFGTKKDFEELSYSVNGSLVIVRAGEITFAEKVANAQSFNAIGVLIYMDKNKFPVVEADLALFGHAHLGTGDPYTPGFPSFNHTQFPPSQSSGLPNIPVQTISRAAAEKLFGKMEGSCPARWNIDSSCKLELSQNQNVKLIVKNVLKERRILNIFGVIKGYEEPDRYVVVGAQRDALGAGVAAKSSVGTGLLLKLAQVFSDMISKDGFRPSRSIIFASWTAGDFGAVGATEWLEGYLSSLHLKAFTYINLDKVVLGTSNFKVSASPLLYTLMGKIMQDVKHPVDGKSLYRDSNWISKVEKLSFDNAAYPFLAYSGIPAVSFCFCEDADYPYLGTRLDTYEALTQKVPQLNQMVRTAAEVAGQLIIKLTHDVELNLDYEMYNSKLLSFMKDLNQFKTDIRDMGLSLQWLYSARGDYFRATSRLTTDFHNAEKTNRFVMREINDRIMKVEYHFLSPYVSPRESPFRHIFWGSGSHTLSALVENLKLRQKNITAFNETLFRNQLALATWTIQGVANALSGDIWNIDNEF

Binder | A450 [1] [A450] | A450 [2] [A450]
B1 | 0.05 | 0.056
B2 | 0.05 | 0.05
B3 | 0.05 | 0.051
B4 | 0.05 | 0.058
B5 | 0.049 | 0.047
B6 | 0.049 | 0.066
B7 | 0.049 | 0.056
B8 | 0.049 | 0.051
B9 | 0.049 | 0.045
B10 | 0.049 | 0.048
B11 | 0.049 | 0.049
B12 | 0.048 | 0.047
B13 | 0.048 | 0.048
B14 | 0.048 | 0.049
B15 | 0.048 | 0.05
B16 | 0.048 | 0.05
B17 | 0.047 | 0.047
B18 | 0.047 | 0.051
B19 | 0.047 | 0.047
B20 | 0.047 | 0.049
B21 | 0.047 | 0.066
B22 | 0.047 | 0.053
B23 | 0.047 | 0.047
B24 | 0.046 | 0.053
B25 | 0.046 | 0.058
B26 | 0.046 | 0.055
B27 | 0.046 | 0.047
